What all share (experiment): SEC; analytical gel filtration on an XBridge BEH SEC 200 Å 3.5 μm column; molecular weight estimated from a standard curve (thyroglobulin, immunoglobin, BSA, myoglobulin)
The target in assay [1] is Staphylococcus aureus oleate hydratase (OhyA) (Staphylococcus aureus).
The target of assay [2] is Staphylococcus aureus oleate hydratase OhyA(E82A) (Staphylococcus aureus).
For assay [3], the target named is Staphylococcus aureus oleate hydratase OhyA(Y201F) (Staphylococcus aureus).

In the case of “Staphylococcus aureus oleate hydratase (OhyA) (enzyme)”, in assay [1], the stoichiometry N was 2. Consider “Staphylococcus aureus oleate hydratase OhyA(E82A) (enzyme)”, for which the stoichiometry N in assay [2] was 2. For “Staphylococcus aureus oleate hydratase OhyA(Y201F) (enzyme)”, the stoichiometry N in assay [3] was 2.

The values are drawn from publication PMC7948970.
